The values that follow come from the RNAGym collection of RNA variant scans (doi:10.1073/pnas.2313332121).

The chains are these.
B1: TPR t1 (parent)
chain: GACCAAUCUGCCCUCAGAGCUCGAGAACAUCUUCGGAUGCAGAGGAGGCAGGCUUCGGUGGCGCGAUAGCGCCAACGUCCUCAACCUCCAAUGCAUCCCACCACAUGAUGAUGCCUGAAGAGCCUUGGUUUUUUG

This data set covers variants of B1. Briefly: polymerase ribozyme fitness, log enrichment relative to wild type (log ratio); higher = more active; in vitro selection for triplet polymerase activity. An outline of the steps:
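Mutant libraries of each subunit of a heterodimeric triplet polymerase ribozyme were built by PCR and transcribed. Each library went through one round of in vitro selection in triplicate: annealing with biotinylated primer, partner subunit and triplets, frozen incubation at −7 °C, gel excision of extended constructs, streptavidin-bead capture and RT-PCR. Input and output libraries were Illumina-sequenced; only genotypes with ≥10 input reads and ≥1 read per output were kept. Fitness is log2(genotype enrichment/wild-type enrichment), using inverse-variance-weighted replicate averages.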
Consider GACCAAUCUGCCCUCAGAGCUCGAGAACAUCUUCGGAUGCUGAGGAGGCAGGCUUCGGUGGCGCGAUAGCGCCAACGUCCUCAACCUCCAAUGCAUCCCACCACAUGAGGAUGCCUGAAGAGCCUUGGUUUUUUG, for which the “polymerase ribozyme fitness (log ratio)” value was -6.03. Consider GACCAAUCUGCCCUCAGAGCUCGAGAACAUCUUCGGAUGCAAAGGAGGCAGGCUUCGGUGGCGUGAUAGCGCCAACGUCCUCAACCUCCAAUGCAUCCCACCACAUGAUGAUGCCUGAAGAGCCUUGGUUUUUUG, for which the “polymerase ribozyme fitness (log ratio)” value was -2.45.

For the variant GACCAAUCUGCCCUCAGAGCUCGAGAACAUCUUCGGAUGCUGAGGAGGCAGGCUUCGGUGGCGCGAUAGCGCCAACGUCCUCAACCUCCAAUGCAUCCCACCACAUGAUGAUGCCUGAAGAGCCUGGGUUUUUUG, the “polymerase ribozyme fitness (log ratio)” value is -3.66.

GACCAAUCUGCCCUCAGAGCUCGAGAACAUCUUCGGAUGCAAAGGAGGCAGGCUUCGGUGGCGCGAUAGCGACAACGUCCUCAACCUCCAAUGCAUCCCACCACAUGAUGAUGCCUGAAGAGCCUUGGUUUUUUG: the “polymerase ribozyme fitness (log ratio)” value is -1.98.

Take GACCAAUCUGCCCUCAGAGCUCGAGAACAUCUUCGGAUGCAAAGGAGGCAGGCUUCGGUGGCGCGAUAGAGCCAACGUCCUCAAUCUCCAAUGCAUCCCACCACAUGAUGAUGCCUGAAGAGCCUUGGUUUUUUG: the “polymerase ribozyme fitness (log ratio)” value was -4.88. For GACCAAUCUGCCCUCAGAGCUCGAGAACAUCUUCGGAUGCAAAGGAGGCAGGCUUCGGUGGCGCGAUAGUGCCAACGUCCUCAACCUCCAAUGCAUCCCACCACAUGAUGAUGCCUAAAGAGCCUUGGUUUUUUG, the “polymerase ribozyme fitness (log ratio)” value was -4.31.

For the variant GACCAAUCUGCCCUCAGAGCUCGAGAACAUCUUCGGAUGCAAAGGGGGCAGGCUUCGGUGGCGCGAUAGCGCCAACGUCCUCAACCUCCAAUGCAUCCCACCACAUGAUGAUGCCUGAAUAGCCUUGGUUUUUUG, the “polymerase ribozyme fitness (log ratio)” value was -2.64.

For the variant GACCAAUCUGCCCUCAGAGCUCGAGAACAUCUUCGGAUGCUGAGGAGGCAGGCUUCGGUGGCGCGAUAGCGCCAACGUCCUCAACCCCCUCUGCAUCCCACCACAUGAUGAUGCCUGAAGAGCCUUGGUUUUUUG, the “polymerase ribozyme fitness (log ratio)” value was -1.28. Regarding GACCAAUCUGCCCUCAGAGCUCGAGAACAUCUUCGGAUGCUGAGGAGGCAGGCUUCGGUGGCGCGAUAGCGCCAACGUCCUCAACCUCCAAUGCAUCCCACCACAUGAUAAUGCCUGAAGCACCUUGUUUUUUUG, the “polymerase ribozyme fitness (log ratio)” value is -5.21. The result for GACCAAUCUGCCCUCAGAGCUCGAGAACAUCUUCGGAUGCAAAGGAGGCAGGCUUCGGUGGUGCGAUAGCGCCAACGUCCUCCACCUCCAAUGCAUCCCACCACAUGAUGAAGCCUGAAGAGCCUUGGUUUUUUG reads -2.06; that for GACCAAUCUGCCCUCAGAGCUCGAGAACAUCUUCGGAUGCUGAGGAGGCAGGCUUCGGUGGCGCGAUAGCGCCAACGUCCUCAACCUCCAAUGCAUCCCACCACAUGAUGAUGCCUGAAGAGCCUUGAUUUUUUG, -2.79; that for GACCAAUCUGCCCUCAGAGCUCGAGAACAUCUUCGGAUGCAAAGGCGGCAGGCUUCGGUGGCCCGAUAGCGCCAACGUCCUCAACCUCCAAUGCAUCCCACCACAAGAUGAUGCCUGAAGAGCCUUGGUUUUUUG, -3.82. The result for GACCAAUCUGCCCUCAGAGCUCGAGAACAUCUUCGGAUGCAAAGGAGGCAGGCUUCGGUGGCGCGAUAGCGCCAACGUCCUCAACCUCCAAUGCAUCCCACCACAUGAUGAUGCCUGAGGAGCCUUGGUUUUUUG reads -0.491.

Turning to GACCAAUCUGCCCUCAGAGCUCGAGAACAUCUUCGGAUGCAAAGGAGGCAGGCUUCGGUGGCGCGAUAGUGCCAACGUCCACAACCUCCAAUUCAUCCCACCACAUGAUGAUGCCUGAAGAGCCUUGGUUUUUUG, the “polymerase ribozyme fitness (log ratio)” value is -6.73. GACCAAUCUGCCCUCAGAGCUCGAGAACAUCUUCGGAUGCUGAGGAGGCAGGCUUCGGUGGCGCGAUAGCGCCAACGUCCUCAACCUCCAAUGCAUCCCACCACAUGAUGAUGCCCGAAGAGCUUUGGUAUUUUG: the “polymerase ribozyme fitness (log ratio)” value was -3.9. For GACCAAUCUGCCCUCAGAGCUCGAGAACAUCUUCGGAUGCAAAGGAGGCAGGCUUCGGUGGCGCGAUAGAGCCAACGUCCUCAACCUCCAAUGCAUCCCACCACAUGAUGAUGCCUGAAGAGCCUUGGUUUUUUG, the “polymerase ribozyme fitness (log ratio)” value was -4.1. The result for GACCAAUCUGCCCUCAGAGCUCGAGAACAUCUUCGGAUGCAAAGGUGGCAGGAUUCGGUGGCGCGAUAGCGCCAACGUCCUCAACCACCAAUGCAUCCCACCACAUGAUGAUGCCUGAAGAGCCUUGGUUUUUUG reads -2.21; that for GACCAAUCUGCCCUCAGAGCUCGAGAACAUCUUCGGAUGCUGAGGAGGCAGGCUUCGGUGGCGCGAUAGCGCCAACGUCCUCAACCUCCAAUACAUCCCACCACAUGAUGAAGCCUGAAGAGCCUUGGUUUUUUG, -1.69; that for GACCAAUCUGCCCUCAGAGCUCGAGAACAUCUUCGGAUGCUGAGGAGGCAGGCUUCGGUGGCGCGAUAGCGCCAACGUCCUCAACCUCCAAUGCAUCCCACCACAUGAUGAUGCCUGAAGAGCCUUCGUUUUUUG, -2.91. With GACCAAUCUGCCCUCAGAGCUCGAGAACAUCUUCGGAUGCUGAGGAGGCAGGCUUCGGUGGCGCGAUAGCGCCAACGUCCUCAACCUCCAAUGCAUCCCACCACAUGAUGAUGCCUCAAGAGCCUUGGUUUUUUG the figure was -4.87.

On to GACCAAUCUGCCCUCAGAGCUCGAGAACAUCUUCGGAUGCAAAGGAGGUAGGCUUCGGUGGCGCGAUAGCGCCAACGUCCUCAACCUCCAAUGCAUCCCACCACAUGAUGACGCCUGAAGAGCCUUGGUUUUUUG, for which the “polymerase ribozyme fitness (log ratio)” value was -0.387. In the case of GACCAAUCUGCCCUCAGAGCUCGAGAACAUCUUCGGAUGCAAAGGAGGCAGGCUUCGGUGGCGCGAUAGCGCCAACGUCCUCAACCUCCAAUGCAUCCCACCACAUGAUGAUGCCUGUAGAGCCUUGGUUUUUUG, the “polymerase ribozyme fitness (log ratio)” value was -1.15. In the case of GACCAAUCUGCCCUCAGAGCUCGAGAACAUCUUCGGAUGCAAAGGAGGCAGGCUUCGGUGGCGCGAUAGCGCCAACGUCCUCAACCUCCAAUGCAUCCCACCUCAUGAUGAAGCCUGAAGAGCCUUGGUUUUUUG, the “polymerase ribozyme fitness (log ratio)” value was -7.34. On to GACCAAUCUGCCCUCAGAGCUCGAGAACAUCUUCGGAUGCUGAGGAGGCAGGCUUCGGUGGCGCGAUAGCGCCAACGGCCUUAACCUCCAGUGCAUCCCACCACAUGAUGAUGCCUGAAGCGCCUUGGUUUUUUG, for which the “polymerase ribozyme fitness (log ratio)” value is -1.41.

As for GACCAAUCUGCCCUCAGAGCUCGAGAACAUCUUCGGAUGCUGAGGAGGCAGGCUUCGGUGGCGCGAUAGCGCCAACGACCUCAACCUCCAAUGCAUCCCACCACAUGAUGACGCCUGAAGAGCCUUGGUUUUUUG, the “polymerase ribozyme fitness (log ratio)” value amounted to 0.679.

For the variant GACCAAUCUGCCCUCAGAGCUCGAGAACAUCUUCGGAUGCUGAGGAGGCAGGCUUCGGUGGCGCGAUAGCGCCAACGUCCUCAACCUCCAAUGCAUCCCACCACAUGAUGACGCCUGAAGAGCCUUGGUUUUUUG, the “polymerase ribozyme fitness (log ratio)” value is 0.631. The result for GACCAAUCUGCCCUCAGAGCUCGAGAACAUCUUCGGAUGCUGAGGAGGCAGGCUUCGGUGGCGCGAUAGCGCCAACGUCCUCAACCUCCAAUGCAUCCCACCACAUGAUGAAGCCUGAAGAGCCUUGGUUUUUUG reads -0.325.

As for GACCAAUCUGCCCUCAGAGCUCGAGAACAUCUUCGGAUGCAAAGGAGGCAGGCUUCGGUGGCGCGAUAGCGCCAACGUCCUCCACCUCCAAUGCAUCCCACCACAUGAUGAAGCCUGAAGAGCCUUGGUUUUUUG, the “polymerase ribozyme fitness (log ratio)” value is -1.42. With GACCAAUCUGCCCUCAGAGCUCGAGAACAUCUUCGGAUGCAAAGGAGGCAGGCUUCGGUGGCGCGAUAGCGCCAACGUCCUCAACCUCCAGUGCAUCCCACCACAUGAUGAUGCCUGAAGAGCCUUGGUUUUUUG the figure was -2.47; with GACCAAUCUGCCCUCAGAGCUCGAGAACAUCUUCGGAUGCAAGGGAGGCAGGCUUAGGUGGCGCGUUAGCGCCAACGUCCUCAACCUCCAGUGCAACCCACCACAUGAUGAGGCCUGAAGAGCCUUGGUUUUUUG, -6.49. The result for GACCAAUCUGCCCUCAGAGCUCGAGAACAUCUUCGGAUGCUGAGGAGGCAGGCUUCGGUGGCGCGAUAGCGCCAACGUCCUCAACCUCCAAUGCAUCCCACCACAUGAUGAUGCCUGAAGAGCCUUGGCUUUUUG reads -0.914.

On to GACCAAUCUGCCCUCAGAGCUCGAGAACAUCUUCGGAUGCAAAGGUGACAGGCUUCGGUGGCGCGCUAGCGCCAACGUCCUCAACCUCCAAUGCAUCCCACCACAUGAUGAUGCCUGUAGAGCCUUGGUUUUUUG, for which the “polymerase ribozyme fitness (log ratio)” value was -5.21. GACCAAUCUGCCCUCAGAGCUCGAGAACAUCUUCGGAUGCAAAGGAGGCAGGCUUCGGUGGCGCGGUAGUGCCAACGUCCUCAACCUCAAAUGCAUCCCACCACAUGAUGAUGCCUGAAGAGCCUUGGUUUAUUG: the “polymerase ribozyme fitness (log ratio)” value was -5.56. As to GACCAAUCUGCCCUCAGAGCUCGAGAACAUCUUCGGAUGCAAUGGAGGCAGGCUUCGGUGGCGCGAUAGCGCCAACGUCCUCAACCUCCAAUGCAACCCACCACAUGAUGAUGCCUGAAGAGCCUUGGUUUUUUG, the “polymerase ribozyme fitness (log ratio)” value was -2.41. Consider GACCAAUCUGCCCUCAGAGCUCGAGAACAUCUUCGGAUGCUGAGGAGGCAGGCUUCGGUGGCGCGAUAGCGCCAACGUCCUCAACCUCCAAUGCAUCCCACCACAUGAUGAUGCCUGAAGAGCCGUGGUUUUUUG, for which the “polymerase ribozyme fitness (log ratio)” value was -1.97. With GACCAAUCUGCCCUCAGAGCUCGAGAACAUCUUCGGAUGCAAAGGAGGCAGGCUUCGGUGGCGCGAUAGCGCCAACGUCCUCAACCUCCAAUGCAUCCCCCCACAUGAUGAGGCCUGAAGAGCCUUGGUUUUUUG the figure was -4.73; with GACCAAUCUGCCCUCAGAGCUCGAGAACAUCUUCGGAUGCAAAGGAGGCAGGCUUCGGUGGCGCGAUAGCGACAACGUCCUCAACCUCCAAUGCAUCCCACCACAUGAUGAUGCCUGAAGAGACUUGGUUUUUUG, -1.85; with GACCAAUCUGCCCUCAGAGCUCGAGAACAUCUUCGGAUGCAAAGGAGGCAGGCUUCGGUGGCGCGAUAGCGCCAACGUCCUCAACCUCCCAUGCAACCCACCACAUGAUGAUGCCUUAAGAGCCUUGGUUUUUUG, -5.05.

Turning to GACCAAUCUGCCCUCAGAGCUCGAGAACAUCUUCGGAUGCAAAGGAGGCAGGCUUCGGUGGUGCGAUAGCGCCAACGUCCUCUAUCUCCAAUGCAUCCCACCACAUGAUGAUGCCUGAAGAGCGUUGUUUUUUUG, the “polymerase ribozyme fitness (log ratio)” value is -3.77. GACCAAUCUGCCCUCAGAGCUCGAGAACAUCUUCGGAUGCUGAGGAGGCAGGCUUCGGUGGCGCGAUAGCGCCAACGUCCUCAACCUCCAACGCAUCCCACCACAUGAUGAUGCCUGAAGAGCCUUGGUUUUUUG: the “polymerase ribozyme fitness (log ratio)” value was -1.21. The result for GACCAAUCUGCCCUCAGAGCUCGAGAACAUCUUCGGAUGCUGAGGAGGCAGGCUUCGGUGGCGCGAUAGCGCCAACGUCCUCAACCUCCAAUGCAUCCCACCACAUGAUGAUGCCUGAACAGCCUUGGUUUUUUG reads -0.366; that for GACCAAUCUGCCCUCAGAGCUCGAGAACAUCUUCGGAUGCAAAGGAGGCAGGUUUCGGUGGCGCGAUAGCGCCAACGUCCUCAACCUACAAUGCAUCCCACCACAUGAUGAUGACUGAAGAGCCUUUGUUUUUUG, -5.52.
